Reference: patent US20220251211A1 (BEIJING SINOTAU BIO PHARMACEUTICALS TECHNOLOGY, published 2022)

Experiments:
[1] = target: T1, Cynomolgus PD-L1-his (90251-C08H, Sino Biological) (cynomolgus, UniProt G7PSE7 19-238); experiment: ELISA, recombinant cynomolgus PD-L1, APC-labeled m1F11
T1 construct: Bought reagent; also called monkey PD-L1; soluble monkey PD-L1

[2] = target: T2, human PD-L1 on the cell surface (SP2/0 PD-L1 cells stably expressing human PD-L1); also human tumor cell lines … (human, UniProt Q9NZQ7 19-290); experiment: flow cytometry, APC-labeled m1F11 on SP2/0 PD-L1 cells
T2 construct: whole, on cells; also called membrane huPD-L1; cell surface PD-L1

[3] = target: T3, Mouse PD-L1-his (50010-MO8H, Sino Biological) (mouse, UniProt Q9EP73 19-238); experiment: ELISA, m1F11 on recombinant mouse PD-L1, luminescence as percent of the highest value
T3 construct: Bought reagent; also called murine PD-L1; soluble mouse PD-L1; not shown: His tag

[4] = target: T4, Human PD-L1-hFc (B3040, Biointron Biological Inc.) (human, UniProt Q9NZQ7 19-238, limits assumed); experiment: ELISA, recombinant human PD-L1, APC-labeled m1F11; recombinant human PD-L1, ELISA
T4 construct: also called recombinant human PD-L1-Fc; hu-PD-L1-Fc; not shown: human Fc of the bought fusion

[5] = target: T2, human PD-L1 on the cell surface (SP2/0 …); experiment: flow cytometry, displacement of pre-bound biotin-huPD-1-hFc from SP2/0 PD-L1 cells, remaining PD-1 detected with streptavidin-FITC
[6] = target: T3, Mouse PD-L1-his (50010-MO8H, Sino …); experiment: ELISA, hu1F11 on soluble mouse PD-L1, luminescence as percent of the highest value
From the text: Y-axis is the relative luminescence index generated by antibody/antigen binding and x-axis is the logarithm of antibody concentrations (ng/ml).

[7] = target: T2, human PD-L1 on the cell surface (SP2/0 …); experiment: flow cytometry on SP2/0 PD-L1 cells pre-incubated with biotin-huPD-1-hFc; bound antibody detected with anti-human kappa-APC

T4 sequence (Q9NZQ7 19-238 limits assumed): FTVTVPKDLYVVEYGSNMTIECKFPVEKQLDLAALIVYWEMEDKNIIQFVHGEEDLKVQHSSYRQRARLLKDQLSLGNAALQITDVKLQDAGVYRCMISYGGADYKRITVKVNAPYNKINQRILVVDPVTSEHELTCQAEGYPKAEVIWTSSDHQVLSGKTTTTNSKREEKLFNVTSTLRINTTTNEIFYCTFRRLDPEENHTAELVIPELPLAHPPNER
T1 sequence (G7PSE7 entry or part of it C08H C08H limits assumed): as the sequence (Q9NZQ7 19-238 limits assumed) above, with A33T, A34S, S62N, R68Q, Q82R, F173L, T185A, T192I, H215L counted along it

Binder	EC50 [1]	EC50 [2]	binding result [3]	EC50 [4]	IC50 (read off the curve) [5]	binding result [6]	EC50 (read off the curve) [7]
m1F11 (murine anti-PD-L1 antibody from hybridoma clone 1F11) (antibody, V domains shown, Recombinant murine antibody expressed in CHO-S cells and used APC-labeled in the assays; also called 1F11-APC; murine version 1F11) VH: QGQMQQSGAELVKPGASVKLSCKTSGFTFSSSYISWLKQKSGQSLEWIAWIYAGTGGTGYNQKFTGKAQLTVDTSSSTAYMQFSSLTTEDSAIYYCAISASYRYDDLFAYWGQGTLVTVSA VL: QIVLTQSPAIMSASPGEKVTMTCSASSSVSSMHWYQQKSGTSPKRWIYDTSKLASGVPARFSGSGSGTSYSLTISSMETEDAATYYCQQWNSNPPTFGAGTKLELK	0.0464 µg/mL	0.0629 µg/mL	no binding (tested: log 3.9 on the axis (about 8000 ng/ml))	0.0393 µg/mL	–	–	–
humanized 1F11 (hu1F11) (antibody, human IgG1, kappa, N297A, V domains shown, Expressed in 293T cells; also called huIF11; humanized IF11) VH: QVQLQQSGAELVKPGASVKLSCKTSGFTFSSSYISWVKQSSGQGLEWIAWIYAGTGGTGYNQKFTGRASITVDTSTSTAYMQLSSLTSEDTAIYYCAISASYRYDDLFAYWGQGTLVTVSS VL: QIVLTQSPASVSASPGEKVTITCSASSSVSSVHWYQQKSGTSPKRWIYDTSKLASGVPARFSGSGSGTSYSLTISSMETEDVATYYCQQWNSNPPTFGTGTKLEIKR	–	–	–	–	~0.9 µg/mL	no binding (tested: log 3.6 on the axis (about 4000 ng/ml))	~0.3 µg/mL
